B1: wild-type GABRA2 (α2 subunit of the γ-aminobutyric acid A receptor), FLAG-tagged [human] / GABRB3 (β3 subunit of the GABA-A receptor) [human (endogenous in 293T)] (parent)
chain 1: NIQEDEAKNNITIFTRILDRLLDGYDNRLRPGLGDSITEVFTNIYVTSFGPVSDTDMEYTIDVFFRQKWKDERLKFKGPMNILRLNNLMASKIWTPDTFFHNGKKSVAHNMTMPNKLLRIQDDGTLLYTMRLTVQAECPMHLEDFPMDAHSCPLKFGSYAYTTSEVTYIWTYNASDSVQVAPDGSRLNQYDLLGQSIGKETIKSSTGEYTVMTAHFHLKRKIGYFVIQTYLPCIMTVILSQVSFWLNRESVPARTVFGVTTVLTMTTLSISARNSLPKVAYATAMDWFIAVCYAFVFSALIEFATVNYFTKRGWAWDGKSVVNDKKKEKASVMIQNNAYAVAVANYAPNLSKDPVLSTISKSATTPEPNKKPENKPAEAKKTFNSVSKIDRMSRIVFPVLFGTFNLVYWATYLNREPVLGVSP
chain 2: QSVNDPGNMSFVKETVDKLLKGYDIRLRPDFGGPPVCVGMNIDIASIDMVSEVNMDYTLTMYFQQYWRDKRLAYSGIPLNLTLDNRVADQLWVPDTYFLNDKKSFVHGVTVKNRMIRLHPDGTVLYGLRITTTAACMMDLRRYPLDEQNCTLEIESYGYTTDDIEFYWRGGDKAVTGVERIELPQFSIVEHRLVSRNVVFATGAYPRLSLSFRLKRNIGYFILQTYMPSILITILSWVSFWINYDASAARVALGITTVLTMTTINTHLRETLPKIPYVKAIDMYLMGCFVFVFLALLEYAFVNYIFFGRGPQRQKKLAEKTAKAKNDRSKSESNRVDAHGNILLTSLEVHNEMNEVSGGIGDTRNSAISFDNSGIQYRKQSMPREGHGRFLGDRSLPHKKTHLRRRSSQLKIKIPDLTDVNAIDRWSRIVFPFTFSLFNLVYWLYYVN
B2: wild-type GABRA2 (α2 subunit of the γ-aminobutyric acid A receptor), FLAG-tagged [human] / GABRG2 (γ2 subunit of the GABA-A receptor) [human (endogenous in 293T)] (parent)
chain 1: B1 chain 1
chain 2: QKSDDDYEDYASNKTWVLTPKVPEGDVTVILNNLLEGYDNKLRPDIGVKPTLIHTDMYVNSIGPVNAINMEYTIDIFFAQTWYDRRLKFNSTIKVLRLNSNMVGKIWIPDTFFRNSKKADAHWITTPNRMLRIWNDGRVLYTLRLTIDAECQLQLHNFPMDEHSCPLEFSSYGYPREEIVYQWKRSSVEVGDTRSWRLYQFSFVGLRNTTEVVKTTSGDYVVMSVYFDLSRRMGYFTIQTYIPCTLIVVLSWVSFWINKDAVPARTSLGITTVLTMTTLSTIARKSLPKVSYVTAMDLFVSVCFIFVFSALVEYGTLHYFVSNRKPSKDKDKKKKNPLLRMFSFKAPTIDIRPRSATIQMNNATHLQERDEEYGYECLDGKDCASFFCCFEDCRTGAWRHGRIHIRIAKMDSYARIFFPTAFCLFNLVYWVSYLYL

Variants of: B1
Assay: co-immunoprecipitation (anti-FLAG beads) with Western blot quantification
Conditions: with GABRB3 (β3 subunit of the GABA-A receptor) [human (endogenous in 293T)]; 293T cells transfected with FLAG-tagged GABRA2-WT or GABRA2-MUT; parent: 1; read off a plot

ratio to parent	Variant
0.87	chain 1 A280V

Variants of: B2
Assay: as above
Conditions: with GABRG2 (γ2 subunit of the GABA-A receptor) [human (endogenous in 293T)]; 293T cells transfected with FLAG-tagged GABRA2-WT or GABRA2-MUT; parent: 1; read off a plot

ratio to parent	Variant
0.88	chain 1 A280V

Source: article PMC11752098
